Experimental data published in patent US20100129373A1.

Assays:
[1] = target: recombinant mouse VEGF (493-MV, R&D systems, USA) (mouse) (UniProt Q00731); test: ELISA, Ab 0.049 nM
[2] = target: recombinant mouse VEGF (493-MV, R&D systems, USA) (mouse) (UniProt Q00731); test: ELISA, Ab 6.25 nM
[3] = target: recombinant mouse VEGF (493-MV, R&D systems, USA) (mouse) (UniProt Q00731); test: ELISA, Ab 50 nM
[4] = target: recombinant mouse VEGF (493-MV, R&D systems, USA) (mouse) (UniProt Q00731); test: ELISA, Ab 0.10 nM
[5] = target: recombinant mouse VEGF (493-MV, R&D systems, USA) (mouse) (UniProt Q00731); test: ELISA, Ab 12.5 nM
[6] = target: recombinant mouse VEGF (493-MV, R&D systems, USA) (mouse) (UniProt Q00731); test: ELISA, Ab 3.13 nM
[7] = target: recombinant mouse VEGF (493-MV, R&D systems, USA) (mouse) (UniProt Q00731); test: ELISA, Ab 0.78 nM
[8] = target: recombinant mouse VEGF (493-MV, R&D systems, USA) (mouse) (UniProt Q00731); test: ELISA, Ab 0.39 nM
[9] = target: recombinant mouse VEGF (493-MV, R&D systems, USA) (mouse) (UniProt Q00731); test: ELISA, Ab 0.20 nM
[10] = target: recombinant mouse VEGF (493-MV, R&D systems, USA) (mouse) (UniProt Q00731); test: ELISA, Ab 25 nM
[11] = target: recombinant mouse VEGF (493-MV, R&D systems, USA) (mouse) (UniProt Q00731); test: ELISA, Ab 1.56 nM
[12] = target: recombinant human VEGF (293-VE, R&D systems, USA) (human) (UniProt P15692); test: ELISA, control IgG 50 nM
[13] = target: T1, recombinant mouse VEGF (493-MV, R&D systems, USA) (mouse) (UniProt Q00731); test: ELISA, control IgG 50 nM
T1 sequence (looked up): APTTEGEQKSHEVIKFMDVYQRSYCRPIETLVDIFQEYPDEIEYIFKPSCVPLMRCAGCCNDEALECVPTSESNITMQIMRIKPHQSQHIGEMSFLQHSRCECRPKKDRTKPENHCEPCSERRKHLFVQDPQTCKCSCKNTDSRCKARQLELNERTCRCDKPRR

Substance | OD490 [1] | OD490 [2] | OD490 [3] | OD490 [4] | OD490 [5] | OD490 [6] | OD490 [7] | OD490 [8] | OD490 [9] | OD490 [10] | OD490 [11] | OD490 [12] | OD490 [13]
Avastin™ (bevacizumab, Genetech), humanized anti-VEGF monoclonal antibody | 0.0687 | 0.0424 | 0.695 | 0.147 | 0.104 | 0.0489 | 0.0438 | 0.0569 | 0.0433 | 0.107 | 0.0455 |  | 
normal human IgG (antibody) |  |  |  |  |  |  |  |  |  |  |  | 0.052 | 0.0467
